We go through 2 substances from US20120329718A1.

For this assay, the target named is M2 muscarinic acetylcholine receptor, endogenous, canine atrium (canine). The assay is described as follows: cell-based or functional assay.

“Gαi2 C-terminal peptide expressed from a pFLAG CMV6a minigene (FLAG-tagged Gαi2ctp)” had a vagal-induced ERP shortening in the PLA, 3 days after minigene delivery (Gαi2ctp dogs vs. GαRp control dogs) of 19.5 ms.

“Gαo1 C-terminal peptide expressed from a pFLAG CMV6a minigene (Gαo1ctp)” yielded a vagal-induced ERP shortening in the PLA, Gαo1ctp minigene given together with Gαi2ctp minigene (vs. Gαi2ctp alone) of 2.8 ms.
